These results are taken from the supplement of paper PMC10567573.

± gives the standard deviation.

This data set is described as follows: protein stability index of a GFP-peptide fusion (GPS, HEK-293T) (PSI 1-6); higher = more stable. The settings on record: c terminus: a fixed tail appended.
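Further: 24-mer peptide tiles fused after GFP, lentivirally expressed, FACS-sorted into six equal bins by GFP/DsRed ratio, decoded by Illumina sequencing, PSI is the read-weighted mean bin number.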

With AAANCHFHCIETLVTTGANVNETD [ANKRD44], the protein stability index amounted to 3.99 ± 0.22 (treatment: DMSO) and 4.08 ± 0.15 (treatment: MLN4924 1 uM, 8 h).

With AAANKLFHYIPGTDILDLENQREN [PLEKHN1], the protein stability index came out at 4.13 ± 0.3 (treatment: DMSO) and 3.92 ± 0.43 (treatment: MLN4924 1 uM, 8 h).

For the sequence AACLYLVCRTEGTPHMLLDLSDLL [BRF1], the protein stability index by setting is: (treatment: DMSO) 3.31 ± 0.47; (treatment: MLN4924 1 uM, 8 h) 2.85 ± 0.43.

Regarding AAKQLEYQQLEDDKLSQKSSSSKL [EPB41L3], the protein stability index was found to be 5 ± 0.64 (treatment: DMSO) and 4.92 ± 0.33 (treatment: MLN4924 1 uM, 8 h).

Regarding AALLQLVRRLQALRLEREEYVLLK [ESRRA], the protein stability index runs as follows: (treatment: DMSO) 2.19 ± 0.37; (treatment: MLN4924 1 uM, 8 h) 1.95 ± 0.18.

Regarding AANLPALVLKIMSGTFAPISDRYS [NEK8], the protein stability index by setting is: (treatment: DMSO) 3.08 ± 0.27; (treatment: MLN4924 1 uM, 8 h) 2.9 ± 0.56.

Turning to AARAVRANDINYQDQIPRTLEEFV [FEM1B], the protein stability index is, setting by setting: (treatment: DMSO) 3.96 ± 0.21; (treatment: MLN4924 1 uM, 8 h) 3.77 ± 0.32.

In the case of AASSAKMGLVETKLAIIPGGGGTQ [AUH], the protein stability index is 3.83 ± 0.66 (treatment: DMSO) and 4.61 ± 0.51 (treatment: MLN4924 1 uM, 8 h).

On to AATDITGFGILGHSQNLAKQQRNE [SEPHS2], for which the protein stability index runs as follows: (treatment: DMSO) 4.68 ± 0.38; (treatment: MLN4924 1 uM, 8 h) 4.57 ± 0.31.

Turning to AAVESVLHLGLPWRMLRPQLVNSS [PPEF2], the protein stability index runs as follows: (treatment: DMSO) 2.74 ± 0.81; (treatment: MLN4924 1 uM, 8 h) 2.46 ± 0.41.

As for ACDIRVAASSAKMGLVETKLAIIP [AUH], the protein stability index runs as follows: (treatment: DMSO) 2.95 ± 0.22; (treatment: MLN4924 1 uM, 8 h) 3.03 ± 0.32.

As for ACGGTRDQLFMQEKARQLLGRLKP [MYBL2], the protein stability index amounted to 3.39 ± 0.54 (treatment: DMSO) and 3.29 ± 0.38 (treatment: MLN4924 1 uM, 8 h).

For ACGVILYILLVGYPPFWDEDQHKL [CAMK2B], the protein stability index is 3.05 ± 0.85 (treatment: DMSO) and 2.93 ± 0.38 (treatment: MLN4924 1 uM, 8 h).

ADDESETPEELEEEIPVVICAAAG [GLT8D2]: the protein stability index came out at 5.582 ± 0.029 (treatment: DMSO) and 5.5 ± 0.35 (treatment: MLN4924 1 uM, 8 h).

In the case of ADVTLDPETAHPNLVLSEDRKSVK [TRIM39], the protein stability index reads like this: (treatment: DMSO) 5.38 ± 0.16; (treatment: MLN4924 1 uM, 8 h) 5.37 ± 0.43.

Turning to AEAGHVDICHMLVQFCRLGSPRSR [EHMT1], the protein stability index came out at 2.3 ± 0.17 (treatment: DMSO) and 2.37 ± 0.34 (treatment: MLN4924 1 uM, 8 h).

As for AEDDHMLIQNEYRNGGSLADAISE [WEE1], the protein stability index runs as follows: (treatment: DMSO) 5.06 ± 0.27; (treatment: MLN4924 1 uM, 8 h) 4.9 ± 0.43.

For AEEPNAAVPDEIPPLEGDEDASRM [HSP90AB1], the protein stability index runs as follows: (treatment: DMSO) 5.74 ± 0.15; (treatment: MLN4924 1 uM, 8 h) 5.65 ± 0.15.

For the sequence AEEYEDSSTKPPKSRRKAALSSPR [INTS3], the protein stability index is, setting by setting: (treatment: DMSO) 5.23 ± 0.12; (treatment: MLN4924 1 uM, 8 h) 5.27 ± 0.27.

As for AEISARTMQSMFAKNFHVKAVMKT [PTPRD], the protein stability index is, setting by setting: (treatment: DMSO) 2.56 ± 0.32; (treatment: MLN4924 1 uM, 8 h) 2.67 ± 0.39.

In the case of AELFSYVLQDRAAKGSLGTQIGFA [FEM1A], the protein stability index was 2.16 ± 0.21 (treatment: DMSO) and 2.11 ± 0.23 (treatment: MLN4924 1 uM, 8 h).

For AELLIFSVPIVYEKYKTQIDHYVG [RTN3], the protein stability index was 2.65 ± 0.77 (treatment: DMSO) and 2.61 ± 0.56 (treatment: MLN4924 1 uM, 8 h).

As for AEYYRLHLEGYHGTAGDSMSYHSG [TNXB], the protein stability index is, setting by setting: (treatment: DMSO) 3.09 ± 0.83; (treatment: MLN4924 1 uM, 8 h) 2.96 ± 0.43.

Regarding AFLKLAKQRSVCTWGKNKPGIGAV [FAN1], the protein stability index is, setting by setting: (treatment: DMSO) 2.76 ± 0.4; (treatment: MLN4924 1 uM, 8 h) 2.3 ± 0.48.

Consider AGGYVDVVKVLLESGASIEDHNEN [ANKRD17], for which the protein stability index runs as follows: (treatment: DMSO) 3.08 ± 0.24; (treatment: MLN4924 1 uM, 8 h) 3.12 ± 0.36.

In the case of AGHRRPAGGIRESKESSKEKKLTV [C22orf31], the protein stability index is 5.05 ± 0.41 (treatment: DMSO) and 4.86 ± 0.38 (treatment: MLN4924 1 uM, 8 h).

For the sequence AHQQKKHSGFEDELSEVLENQSSQ [CHGA], the protein stability index was found to be 5.28 ± 0.26 (treatment: DMSO) and 5.25 ± 0.34 (treatment: MLN4924 1 uM, 8 h).

For AIAWCLRNEGVSSVLLGASNADQL [KCNAB2], the protein stability index is, setting by setting: (treatment: DMSO) 2.23 ± 0.27; (treatment: MLN4924 1 uM, 8 h) 2.1 ± 0.13.

Consider AIIGWLLTTCTSNVAASNAKLALF [INTS3], for which the protein stability index reads like this: (treatment: DMSO) 3.13 ± 0.21; (treatment: MLN4924 1 uM, 8 h) 3 ± 0.45.

As for AINRDTAFPGASHESSGNPPLRVI [RHOBTB3], the protein stability index was found to be 3.44 ± 0.049 (treatment: DMSO) and 3.47 ± 0.29 (treatment: MLN4924 1 uM, 8 h).

Consider AIRRFQSMPVRLLGHSPVLRNITN [CDC25B], for which the protein stability index stood at 2.42 ± 0.35 (treatment: DMSO) and 2.24 ± 0.22 (treatment: MLN4924 1 uM, 8 h).

AKKFMWRDSFMRHRGHCERRHRLG [ZBTB22] returned a protein stability index (treatment: DMSO) of 2.94 ± 0.23 and a protein stability index (treatment: MLN4924 1 uM, 8 h) of 3.1 ± 0.41.

AKVTGEVLDILTRLPESVERLTGV [FLOT1]: the protein stability index is 2.98 ± 0.37 (treatment: DMSO) and 3.17 ± 0.34 (treatment: MLN4924 1 uM, 8 h).

ALAEGYRYPELDTPKLDCFLSGME [TBX6]: the protein stability index worked out at 3.2 ± 0.48 (treatment: DMSO) and 3.5 ± 0.19 (treatment: MLN4924 1 uM, 8 h).

Regarding ALDEIKLLKCVRESDPSDPNKDMV [SRPK2], the protein stability index by setting is: (treatment: DMSO) 4.75 ± 0.23; (treatment: MLN4924 1 uM, 8 h) 4.54 ± 0.26.

Take ALDYLQNQRIIHRDMKPDNILLDE [STK32A]: the protein stability index is, setting by setting: (treatment: DMSO) 3.14 ± 0.17; (treatment: MLN4924 1 uM, 8 h) 3.47 ± 0.45.
